The results in this text go back to patent US20240255495 (UNIVERSITY OF PITTSBURGH-OF THE COMMONWEALTH SYSTEM OF …, published 2024).

The target in data set [1] is thrombin (UniProt P00734;P00734 P00734:328-363,P00734:364-622). Briefly: FP.
Data set [2] addresses T1, PTK7 (protein tyrosine kinase 7), recombinant (UniProt Q13308 Q13308:31-704).
T1 sequence: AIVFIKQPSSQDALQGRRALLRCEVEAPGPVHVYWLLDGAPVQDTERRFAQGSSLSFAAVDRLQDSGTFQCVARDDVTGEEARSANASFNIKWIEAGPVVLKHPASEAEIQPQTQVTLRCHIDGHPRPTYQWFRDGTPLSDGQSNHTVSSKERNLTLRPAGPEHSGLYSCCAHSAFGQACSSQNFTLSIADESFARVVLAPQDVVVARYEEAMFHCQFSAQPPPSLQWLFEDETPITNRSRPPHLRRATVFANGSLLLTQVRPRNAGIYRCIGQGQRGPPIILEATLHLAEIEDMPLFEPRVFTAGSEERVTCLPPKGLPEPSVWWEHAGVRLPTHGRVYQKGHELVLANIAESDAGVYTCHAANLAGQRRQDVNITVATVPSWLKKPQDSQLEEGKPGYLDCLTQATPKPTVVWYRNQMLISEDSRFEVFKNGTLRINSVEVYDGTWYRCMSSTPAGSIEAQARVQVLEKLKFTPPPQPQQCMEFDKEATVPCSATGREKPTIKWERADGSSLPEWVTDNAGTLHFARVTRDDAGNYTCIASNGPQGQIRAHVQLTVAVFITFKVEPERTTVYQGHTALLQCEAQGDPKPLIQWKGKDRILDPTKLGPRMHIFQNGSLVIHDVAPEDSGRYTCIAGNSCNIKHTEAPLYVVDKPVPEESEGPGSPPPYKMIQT

B1: TBA unmodified (ssDNA)
DNA: GGTTGGTGTGGTTGG
Take B1: in data set [1], the Kd was 220 nM.

B2: sgc8c(27)-PyOx (ssDNA)
DNA: ATCTAACTGCTGCGCCGCCGGGAAAATACTGTACGGTTAGA
modifications: T27 conjugated to pyridinium oxime catalyst PyOx
B2: the binding result in data set [2] is “binds”.

In general, Kd refers to the constant that tells how readily two partners part at equilibrium. Higher therefore signals a looser complex.
